Measured values as given in paper PMC8512704, “A Uniform Benchmark for Testing SsrA-Derived Degrons in the Escherichia coli ClpXP Degradation Pathway” (Molecules, 2021).
No end group written: not given here.

T1: SspB (Escherichia coli, UniProt P0AFZ3 1-165)
T1 chain: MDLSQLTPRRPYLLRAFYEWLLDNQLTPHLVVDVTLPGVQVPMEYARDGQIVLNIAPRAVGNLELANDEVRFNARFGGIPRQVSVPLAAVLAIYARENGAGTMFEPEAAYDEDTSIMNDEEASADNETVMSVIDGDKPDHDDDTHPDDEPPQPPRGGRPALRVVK

B1: eGFP-AANDENYSENY (peptide)
chain: eGFP-AANDENYSENY
notes: AANDENY motif of the ssrA tag followed by the SENY linker, appended to the C-terminus of eGFP; Degron fused to the C-terminus of His-TEV-eGFP; source: E. coli ΔclpP Keio strain (JW0427) (earlier Top10), pBAD, purified (HisTrap and Superdex200 in tandem); not shown: His-TEV, N-terminal, kept; eGFP, N-terminal, kept
B2: eGFP-AANDENYAANDENY (peptide)
chain: eGFP-AANDENYAANDENY
notes: two repeats of the AANDENY motif of the ssrA tag, appended to the C-terminus of eGFP; Degron fused to the C-terminus of His-TEV-eGFP; source: E. coli ΔclpP Keio strain (JW0427) (earlier Top10), pBAD, purified (HisTrap and Superdex200 in tandem); not shown: His-TEV, N-terminal, kept; eGFP, N-terminal, kept
B3: eGFP-AANDENYSENYADAS (peptide)
chain: eGFP-AANDENYSENYADAS
notes: ssrA tag variant with the SENY linker and the C-terminal ALAA replaced by ADAS, appended to the C-terminus of eGFP; Degron fused to the C-terminus of His-TEV-eGFP; source: E. coli ΔclpP Keio strain (JW0427) (earlier Top10), pBAD, purified (HisTrap and Superdex200 in tandem); not shown: His-TEV, N-terminal, kept; eGFP, N-terminal, kept
B4: eGFP-AANDENY (peptide)
chain: eGFP-AANDENY
notes: AANDENY motif of the E. coli ssrA tag, appended to the C-terminus of eGFP; Degron fused to the C-terminus of His-TEV-eGFP; source: E. coli ΔclpP Keio strain (JW0427) (earlier Top10), pBAD, purified (HisTrap and Superdex200 in tandem); not shown: His-TEV, N-terminal, kept; eGFP, N-terminal, kept
B5: SspB (natural protein, Escherichia coli, UniProt P0AFZ3 1-165, looked up)
chain: T1 chain
B6: eGFP-AANDENYADAS (peptide)
chain: eGFP-AANDENYADAS
notes: ssrA tag variant with the C-terminal ALAA replaced by ADAS, appended to the C-terminus of eGFP; Degron fused to the C-terminus of His-TEV-eGFP; source: E. coli ΔclpP Keio strain (JW0427) (earlier Top10), pBAD, purified (HisTrap and Superdex200 in tandem); not shown: His-TEV, N-terminal, kept; eGFP, N-terminal, kept
B7: eGFP-AANDENYALAA (peptide)
chain: eGFP-AANDENYALAA
notes: ssrA tag of Escherichia coli, the 11 amino acids added by trans-translation (tmRNA), appended to the C-terminus of eGFP; Degron fused to the C-terminus of His-TEV-eGFP; also called eGFP-ssrA; eGFP-SsrA; source: E. coli ΔclpP Keio strain (JW0427) (earlier Top10), pBAD, purified (HisTrap and Superdex200 in tandem); not shown: His-TEV, N-terminal, kept; eGFP, N-terminal, kept
B8: eGFP-AANDENYSENYALAA (peptide)
chain: eGFP-AANDENYSENYALAA
notes: ssrA tag variant with the SENY linker between AANDENY and ALAA, appended to the C-terminus of eGFP; Degron fused to the C-terminus of His-TEV-eGFP; source: E. coli ΔclpP Keio strain (JW0427) (earlier Top10), pBAD, purified (HisTrap and Superdex200 in tandem); not shown: His-TEV, N-terminal, kept; eGFP, N-terminal, kept

Tests used:
SspB [1] = target: T1, SspB; test: MST
SspB [2] = target: B5; test: MST; 50 nM eGFP-degron (eGFP fluorescence), SspB titrated 3.72 nM to 122 μM; 25 mM Hepes pH 7.6, 200 mM KCl, 5 mM MgCl2, 10% glycerol, 0.05% Tween 20; 15 min at RT; measured at 20 °C, Monolith NT.115; settings: both partners purified
SspB [3] = target: T1, SspB; test: MST
ClpX = ClpX (Escherichia coli, UniProt P0A6H1 1-424); test: cell-based or functional assay
Chain of ClpX (P0A6H1 whole entry): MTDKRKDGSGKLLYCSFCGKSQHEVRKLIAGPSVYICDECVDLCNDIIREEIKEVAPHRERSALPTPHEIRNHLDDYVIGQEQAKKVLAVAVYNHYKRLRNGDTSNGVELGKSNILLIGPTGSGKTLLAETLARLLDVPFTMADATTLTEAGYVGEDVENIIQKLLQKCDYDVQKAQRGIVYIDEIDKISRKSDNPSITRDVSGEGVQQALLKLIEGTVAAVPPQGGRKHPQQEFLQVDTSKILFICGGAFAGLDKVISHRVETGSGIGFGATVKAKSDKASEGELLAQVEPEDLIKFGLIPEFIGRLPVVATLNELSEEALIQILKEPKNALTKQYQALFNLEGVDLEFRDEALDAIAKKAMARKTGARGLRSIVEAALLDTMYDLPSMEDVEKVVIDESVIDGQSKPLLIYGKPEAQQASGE

| Binder | Ka (SspB [1]) | Kd (SspB [2]) | binding result (SspB [2]) | Kd (SspB [3]) | ClpX ATPase activity (NADH-coupled assay, 0.08 µM ClpX6, 30 °C) with increasing SspB2 (0-27.4 μM): increase of reaction velocity (ClpX) |
| --- | --- | --- | --- | --- | --- |
| B1 | 9.78e+06 M⁻¹ | 100 nM | – | – | – |
| B2 | 9.56e+06 M⁻¹ | – | binds | 120 nM | – |
| B3 | 3.37e+06 M⁻¹ | 300 nM | – | – | – |
| B4 | 1.08e+07 M⁻¹ | – | binds | 110 nM | – |
| B5 | – | – | – | – | ~2 fold |
| B6 | 3.02e+06 M⁻¹ | 330 nM | – | – | – |
| B7 | 1.32e+07 M⁻¹ | 80 nM | – | – | – |
| B8 | 7.8e+06 M⁻¹ | – | binds | 140 nM | – |
